In patent US7108990B2, “Chemokine receptor” (ChemoCentryx, Inc., priority 1999, dated 2006):
Entries after “also recorded” stand apart in the source; their conditions may differ.

Experiments:
[1] = molecular target: T1, CCX CKR (Homo sapiens, UniProt Q9NPB9); experiment: Preliminary chemotaxis analysis of CCX CKR transfectants; type: cell-based; conditions: preliminary chemotaxis analyses
T1 construct: Full length CCX CKR expression constructs were made in pIRESpuro expression vector; expressed in transfected cells
T1 sequence (Q9NPB9 1-350): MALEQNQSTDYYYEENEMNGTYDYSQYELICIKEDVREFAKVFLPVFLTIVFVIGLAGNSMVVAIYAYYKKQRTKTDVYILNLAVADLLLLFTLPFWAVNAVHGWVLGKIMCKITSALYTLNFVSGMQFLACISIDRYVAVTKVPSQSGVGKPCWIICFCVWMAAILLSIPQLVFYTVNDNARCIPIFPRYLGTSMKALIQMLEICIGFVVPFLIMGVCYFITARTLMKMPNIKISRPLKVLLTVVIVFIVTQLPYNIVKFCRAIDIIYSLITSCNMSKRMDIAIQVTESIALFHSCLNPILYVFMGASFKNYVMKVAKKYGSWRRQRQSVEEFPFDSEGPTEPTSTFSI

[2] = molecular target: T1, CCX CKR; experiment: Ligand binding fingerprint: cold chemokines competing against 125I-ELC on CCX CKR stable transfectants; conditions: cold competitor at 200 nM; human and murine chemokines
Source text: In order to rapidly and thoroughly define a given chemokine receptor's ligand binding fingerprint, we have established an approach to comprehensively profile chemokine receptors using a large array of purified chemokines and chemokine variants. We used this approach to confirm independently the interaction of ELC and other chemokines with CCX CKR. Employing radioligand binding of ^125-labeled-ELC or ^125-TECK to CCX CKR stable transfectants, chemokine specificity for the new receptor was determined.
(§1) Binding analysis was carried out using efficiency-maximized radioligand binding utilizing filtration protocols designated “Displace Max” (Dairaghi et al., 1999, J. Biol. Chem. 274:21569). In these assays, DisplaceMax employed the simultaneous interrogation of CCX CKR transfectants by >80 distinct purified chemokines in the ability to displace radiolabeled ELC or TECK, using the protocol described (Dairaghi et al., 1999, J. Biol. Chem. 274:21569).

[3] = molecular target: T1, CCX CKR; experiment: Adhesion of HEK293-CCX CKR cells to immobilized stalkokines and competition by soluble chemokines; type: cell-based; conditions: soluble recombinant chemokine 5–10 ug/ml
Source text: “Stalkokine” technology was used to identify the chemokines bound by the CCX CKR. Briefly, immobilized native chemokines alone are incapable of capturing cells bearing cognate receptors (Imai et al., 1997, Cell 91:521). We have developed non-native chemokine structures, stalkokines, comprising chemokine moieties engineered as N-terminal attachments to extended modified mucins (Bazan et al., 1997, Nature 385:640). In one embodiment, stalkokines, harvested in the supernatants of HEK293 cells after transient transfection, are anchored to solid substrates via antibodies against carrier domains (e.g. poly-His epitopes) engineered to the carboxyl terminus, leaving the chemokine domain free to interact with candidate orphan receptors.
To determine ligand binding to CCX CKR, HEK293-CCX CKR cells were used to interrogate chemokine ‘stalkokines’ (SK), i.e., molecules in which discrete chemokine domains were engineered to be tethered to the end of an extended stalk structure. Stalkokines were interrogated using 8-well chamber slides coated first with anti-His anchoring antibody (10 ug/ml in PBS overnight at RT), which were washed and ‘blocked’ (2% FBS/0.5% BSA in PBS); treated with 250 ul of HEK293 cell stalkokine supernatants (1 hr at 37 C), and incubated with 500,000 HEK293-CCX CKR transfectants (1.5 hrs at RT). Inhibition of adhesion by competition with soluble chemokines was done by incubating cells with 5–10 ug/ml of recombinant chemokines. In all cases, nonadherent cells were removed by washing in PBS; remaining adherent cells were fixed with 1% glutaraldehyde, photoimaged and counted. As a primary screen this adhesion would reveal putative receptor-ligand interactions.

[4] = molecular target: T1, CCX CKR; experiment: Ligand induced internalization of Flag-CCX CKR in 293 cells (FACS); type: cell-based; conditions: 100 nM chemokine, 37° C., 15 or 45 minutes, 293 F-CCR10 cells
Protocol: 293 cells transfected with the Flag-CCX CKR fusion plasmid (i.e., “293 F-CCR10 cells;” see Example 3) were incubated at 37° C. with varying concentrations of chemokines (ELC, SLC, TECK, murine CTACK and MCP-4) for 15 or 45 minutes. Following incubation, the cells were washed and fixed with 3% paraformaldehyde for 15 minutes on ice. The cells were stained with anti-Flag M1 antibody, followed by a PE-conjugated anti-mouse secondary antibody. FACS analysis were then carried out to determine surface expression of the receptor.
Results: A reduction in antibody binding in the presence of ligand is an indication of ligand-induced internalization of the receptor.

[5] = molecular target: T1, CCX CKR; experiment: Radioligand binding competition (DisplaceMax) to CCX CKR stable transfectants with Scatchard transformation
Source text: In one embodiment, binding is detected as described by Dairaghi et al., 1997, J. Biol. Chem. 272:28206–209 (incorporated by reference in its entirety for all purposes) substituting CCX CKR transfectants for the CCR3 transfectants). In one embodiment, binding is detected using the filter based technique described by Dairaghi et al., 1999, J. Biol. Chem. 274:2156 (incorporated by reference in its entirety for all purposes), e.g., as shown in FIG. 4. Briefly, this technology employs expanded, efficiency-maximized radioligand binding utilizing filtration protocols. In these assays, 1×10^5 CCXCKR-293 HEK cells are incubated with ^125I-labeled ELC (MIP3beta) (final concentration of ˜0.05 nM) in the presence of unlabeled chemokine for 3 h at 4° C. in 25 mM HEPES, 140 mM NaCl, 1 mM CaCl2, 5 mM MgCl2, and 0.2% bovine serum albumin, adjusted to pH 7.1. Reactions were aspirated onto PEI-treated GF/B glass filters using a cell harvester (Packard). Filters are washed twice (25 mM HEPES, 500 mM NaCl, 1 mM CaCl2 5 mM MgCl2, adjusted to pH 7.1) and scintillant (e.g., MicroScint 20; 50 μl) is added to dried filters and counted (e.g., using a Packard Topcount scintillation counter). The competition dose-response curves is analyzed by standard methods to determine IC50 values (e.g., using GraphPad Prism software (San Diego, Calif.)). Additionally, a Scatchard transformation can be used to estimate the receptor sites per cell (e.g., using WaveMetrics Igor software (Lake Oswego, Oreg.)).
as §1
The binding interactions identified in the primary screen were examined quantitatively by extensive radioligand binding competition to CCX CKR stable transfectants and Scatchard transformation of the displacement data (FIG. 4B). […] In each case, the murine versions of these chemokines also bound, and with even greater affinity; the apparent Kd's are listed in FIG. 4B. […] In similar experiments, murine CTACK bound the receptor with a Kd of ˜9 nM (not shown). CTACK is also referred to as CCL27, ALP, ILC, and ESkine.

[6] = molecular target: T1, CCX CKR; experiment: Homologous competition binding assay with radiolabeled chemokine on HEK293-CCX CKR cells; conditions: HEK293-CCX CKR cells versus wildtype HEK293 cells
Source text: Furthermore ELC-SK mediated adhesion was abolished in the presence of soluble native ELC as a competitor (FIG. 3A, top row). […] Moreover, radiolabeled ELC was used in a traditional homologous competition assay in the presence of increasing concentrations of unlabeled ELC. […] Taken together, the stalkokine-based adhesion and radiolabeled ligand binding/homologous competition assays indicate that CCX CKR is a new chemokine receptor that bound a novel compliment of chemokines.

Molecule: ELC: EBI1 ligand chemokine, recombinant
- migration of CCX CKR transfectants in response to chemokine [1]: moderate migration
- competition with 125I-labeled ELC binding to CCX CKR (fingerprint) [2]: bound well
- effect of soluble chemokine on ELC-SK mediated adhesion of HEK293-CCX CKR cells [3]: abolished; also recorded: ablation of adhesion
- internalization of CCX CKR [4]: Internalization of the receptor was observed
- affinity of binding to CCX CKR, in words [5]: high affinity
- binding in homologous competition of radiolabeled with unlabeled chemokine [6]: significant binding

B1: SLC: secondary lymphoid-tissue chemokine, recombinant (protein)
chain: SDGGAQDCCLKYSQRKIPAKVVRSYRKQEPSLGCSIPAILFLPRKRSQAELCADPKELWVQQLMQHLDKTPSPQKPAQGCRKDRGASKTGKKGKGSKGCKRTERSQTPKGP
- migration of CCX CKR transfectants in response to chemokine [1]: moderate migration
- competition with 125I-labeled ELC binding to CCX CKR (fingerprint) [2]: bound well
- effect of soluble chemokine on ELC-SK mediated adhesion of HEK293-CCX CKR cells [3]: significant reduction; also recorded: ablation of adhesion
- internalization of CCX CKR [4]: Internalization of the receptor was observed
- affinity of binding to CCX CKR, in words [5]: high affinity
